From patent US20230295345A1 (published 2023) come the findings set out here.

Assay [1] has as its target T1, TMPRSS6 expressed in transfected HepG2 cells (HAMP-luciferase reporter assay) (UniProt Q8IU80 1-811, limits assumed).
T1 sequence (looked up): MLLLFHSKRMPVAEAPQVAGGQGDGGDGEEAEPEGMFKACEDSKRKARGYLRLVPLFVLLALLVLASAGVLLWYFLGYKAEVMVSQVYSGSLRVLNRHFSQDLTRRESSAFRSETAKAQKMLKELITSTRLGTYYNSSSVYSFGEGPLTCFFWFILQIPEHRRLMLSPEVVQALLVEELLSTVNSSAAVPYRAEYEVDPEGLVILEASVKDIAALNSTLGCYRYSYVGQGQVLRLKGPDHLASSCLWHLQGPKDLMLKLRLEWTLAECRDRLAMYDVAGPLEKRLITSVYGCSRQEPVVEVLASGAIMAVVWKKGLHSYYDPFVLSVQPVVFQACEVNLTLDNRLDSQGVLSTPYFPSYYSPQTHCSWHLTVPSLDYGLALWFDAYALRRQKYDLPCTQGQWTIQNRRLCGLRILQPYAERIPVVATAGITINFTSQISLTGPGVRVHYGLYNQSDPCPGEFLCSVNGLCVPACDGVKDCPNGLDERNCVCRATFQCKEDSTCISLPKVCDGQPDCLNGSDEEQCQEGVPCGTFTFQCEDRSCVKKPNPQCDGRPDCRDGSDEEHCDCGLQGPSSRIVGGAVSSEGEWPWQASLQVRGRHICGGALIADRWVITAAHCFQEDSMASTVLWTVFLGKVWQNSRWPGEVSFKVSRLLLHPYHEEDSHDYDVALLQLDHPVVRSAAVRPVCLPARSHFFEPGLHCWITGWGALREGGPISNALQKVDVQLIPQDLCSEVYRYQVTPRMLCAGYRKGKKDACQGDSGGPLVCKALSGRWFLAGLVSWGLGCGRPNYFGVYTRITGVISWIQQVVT
Description: cell-based or functional assay.

Assay [2] concerns the target T2, matriptase (ST14) over-expressed in HEK293T cells (human, UniProt Q9Y5Y6 1-855).
T2 construct: also called matriptase-1
T2 sequence: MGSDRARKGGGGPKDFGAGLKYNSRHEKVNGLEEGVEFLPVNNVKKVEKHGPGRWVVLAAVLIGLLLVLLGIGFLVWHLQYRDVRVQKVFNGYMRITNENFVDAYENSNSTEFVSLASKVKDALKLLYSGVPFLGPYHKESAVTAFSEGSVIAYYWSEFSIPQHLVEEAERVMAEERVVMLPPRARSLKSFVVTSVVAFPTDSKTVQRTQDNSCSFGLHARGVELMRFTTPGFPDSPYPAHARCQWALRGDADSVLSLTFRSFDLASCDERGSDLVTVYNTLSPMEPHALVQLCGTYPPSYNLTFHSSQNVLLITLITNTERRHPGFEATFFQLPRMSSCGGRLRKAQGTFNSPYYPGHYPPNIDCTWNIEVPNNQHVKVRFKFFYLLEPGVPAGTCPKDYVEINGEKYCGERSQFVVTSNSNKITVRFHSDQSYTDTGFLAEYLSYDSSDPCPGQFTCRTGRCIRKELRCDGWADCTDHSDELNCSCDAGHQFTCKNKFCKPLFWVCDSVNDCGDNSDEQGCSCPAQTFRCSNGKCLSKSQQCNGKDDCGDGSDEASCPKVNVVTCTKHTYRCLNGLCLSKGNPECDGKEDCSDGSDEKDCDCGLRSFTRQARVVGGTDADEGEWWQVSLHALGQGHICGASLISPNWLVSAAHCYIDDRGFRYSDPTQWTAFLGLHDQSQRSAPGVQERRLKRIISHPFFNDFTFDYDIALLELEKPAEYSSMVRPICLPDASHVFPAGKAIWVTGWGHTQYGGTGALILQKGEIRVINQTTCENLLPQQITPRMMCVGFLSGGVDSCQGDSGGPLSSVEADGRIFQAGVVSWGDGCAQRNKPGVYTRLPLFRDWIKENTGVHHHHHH
Description: FACS on permeabilized HEK293T cells over-expressing ST14. An excerpt:
To determine if anti-TMPRSS6 antibodies bind to homologous matriptases, HEK293T cells over-expressing matriptase (ST14) (SEQ ID NO: 100) (FIGS. 5B, 5E, 5H, 5K, 5N, 5Q), and HEK293T cells over-expressing matriptase-3 (TMPRSS7) (SEQ ID NO: 101) (FIGS. 5C, 5F, 5I, 5L, 5O, 5R) were collected (generated in house). HEK293T cells stably expressing human TMPRSS6 (matriptase-2) (SEQ ID NO:97) (generated by LakePharma Inc as described above, FIGS. 5A, 5D, 5G, 5J, 5M, 5P) were used as a positive control and HEK293T cells (FIGS. 5A-5R) were used as a negative control (as described above). Cells were blocked and permeabilized with dPBS + 3% BSA + 0.1% Tween-20 before incubation with various anti-TMPRSS6 antibodies diluted in dPBS + 3% BSA + 0.1% Tween-20. Cells were incubated with anti-TMPRSS6 antibodies and their humanized variants at a concentration of roughly 1 µg/ml for 1 hr. After incubation, cells were washed with dPBS and incubated with goat anti-mouse IgG conjugated with AlexaFluor-488 (Invitrogen, FIGS. 5A-5I) or goat anti-human IgG conjugated with Allophycocyanin (APC) (Jackson Immuno Research, FIGS. 5J-5R) as a 2° antibody. At last, cells were washed with dPBS and re-suspended with dPBS + 1 mM EDTA, and then subjected to FACS analysis using a NOVOCYTE® Flow Cytometer. Bound antibody was determined by excitation at 488 nm and measurement of emission (FITC-A) at 530 nm (FIGS. 5A-5I) or by excitation at 640 nm and measurement of emission (APC-A) at 675 nm (FIGS. 5J-5R). Results for these assays are shown in histogram plots in FIGS. 5A-5R.

B1: MWTx-002 anti-TMPRSS6 antibody (antibody, mouse IgG2b, kappa, V domains shown)
VH: EVQLQQSGAELVKPGASVKLSCTASGFNIKDYYIHWVKERTEQGLEWFGRIDPEDGESEYAPKFQGKATLTADTSSNTAYLQLSSLTSEDTAVYYCTRGDSMMVTYFDYWGQGTTLTVSS
VL: DIVMTQSHKFMSTSVGDRVSITCKASQDVSTAVAWYQQKPGQSPKLLIYWAFTRHTGVPDRFTSTGSGTDYALTISSVQAEDLALYYCQQHYRSPWTFGGGTKLEIKR
notes: Mouse monoclonal antibody from a hybridoma (ATCC PTA-126760)
In the case of B1, the “EC50, HAMP promoter activity (HAMP-luciferase reporter assay in HepG2 cells)” value (“EC50, HAMP promoter activity” for short) in assay [1] was determined as 1 µg/mL. Also, in assay [2], the binding result is given as “no binding (tested: roughly 1 µg/ml)”.

B2: hzMWTx-003Var anti-TMPRSS6 antibody (antibody, human IgG1, kappa, L234A L235A, V domains shown)
VH: QVQLVQSGAEVKKPGASVKVSCKASGFNIEDYYMHWVRQAPGQRLEWMGRIDPEDAETTYSPKFQGRVTIIPDTSANTAYMELSSLRSEDTAVYYCARSIYLDPMDYWGQGTLVTVSS
VL: DIQMTQSPKSLSASVGDRVTITCRASQDVTTALAWYQQKPGQSPKLLIYWATTRHSGVPSRFSGSGSGTDFTLTISSLQPEDFATYYCQQHYSTPYTFGQGTKLEIKR
notes: Humanized variant of MWTx-003, human IgG1/kappa
B2: the “EC50, HAMP promoter activity” value in assay [1] came to 0.3 µg/mL. Also, the binding result in assay [2] was “no binding (tested: roughly 1 µg/ml)”.

B3: MWTx-001 anti-TMPRSS6 antibody (antibody, mouse IgG2a, kappa, V domains shown)
VH: QVQLQQPGAELAKPGASVKMSCKASGYTFTSYWITWVKQRPGQDLEWIGNIYPGSGSTYYNEKFKSKATLTVDTSSRTAYMQLSSLTSADSAVYYCAPYDSDYAMDYWGQGTSVTVSS
VL: DIKMTQSPSSMYASLGERVTITCKASQDINNYLSWFQQKPGKSPKTLIYRANRLVDGVPSRVSGSGSGQDYSLTISSLEYEDVGIYFCLQYDEFPLTFGAGTKLELKR
notes: Mouse monoclonal antibody from a hybridoma (ATCC PTA-126759)
Turning to B3, the “EC50, HAMP promoter activity” value in assay [1] came to 3 µg/mL. Besides, in assay [2], the binding result is listed as “no binding (tested: roughly 1 µg/ml)”.

B4: hzMWTx-001Var anti-TMPRSS6 antibody (antibody, human IgG1, kappa, N297A, V domains shown)
VH: EVQLVQSGAEVKKPGASVKVSCKASGYTFTSYWITWVRQAPGQRLEWIGNIYPGSGSTYYNEKFKSKATITRDTSSRTAYMELSSLRSEDTAVYYCAPYDADYAMDYWGQGTLVTVSS
VL: DIQMTQSPSSLSASVGDRVTITCKASQDISNYLSWFQQKPGKAPKLLIYRANRLVEGVPSRFSGSGSGTDFTLTISSLQPEDFATYFCLQYDEFPLTFGGGTKVEIKR
notes: Humanized variant of MWTx-001, human IgG1/kappa
As to B4, the “EC50, HAMP promoter activity” value in assay [1] was determined as 0.8 µg/mL. For the same molecule, the binding result in assay [2] is on record as “no binding (tested: roughly 1 µg/ml)”.

B5: MWTx-003 anti-TMPRSS6 antibody (antibody, mouse IgG2b, kappa, V domains shown)
VH: EVQLQQSGAELVKPGASVKLSCTASGFNIEDYYIHWVKERTEQGLEWIGRIDPEDGETTYAPQFQGKATIIPDTSSNTAYMQLSSLTSEDAAVYYCARSIYLDPMDYWGQGTSVTVSS
VL: DIVMTQSHKFMSTSVGDRVSITCKASQDVTTAVAWYQQKPGQSPKILIYWATTRHTGVPDRFTGSISGTTYILTISSVQAEDLALYYCQQHYSTPYTFGGGTKLEIKR
notes: Mouse monoclonal antibody from a hybridoma (ATCC PTA-126761); also called r4K12B (recombinantly expressed version, same HC and LC)
With B5, the “EC50, HAMP promoter activity” value in assay [1] is 2 µg/mL. Moreover, the binding result in assay [2] is given as “no binding (tested: roughly 1 µg/ml)”.

B6: hzMWTx-002Var anti-TMPRSS6 antibody (antibody, human IgG1, kappa, N297A, V domains shown)
VH: EVQLVQSGAEVKKPGASVKVSCKASGFNIKDYYIHWVRQATGQGLEWMGRIDPEDAESEYAPKFQGRVTITADTSTDTAYMELSSLRSEDTAVYYCTRGDSMMVTYFDYWGQGTLVTVSS
VL: DIQMTQSPSSLSASVGDRVTITCKASQDVSTAVAWYQQKPGKAPKLLIYWAFTRHTGVPSRFSGSGSGTDYALTISSLQPEDFATYYCQQHYRSPWTFGGGTKVEIKR
notes: Humanized variant of MWTx-002, human IgG1/kappa
As for B6, the “EC50, HAMP promoter activity” value in assay [1] came out at 0.3 µg/mL. For the same molecule, the binding result in assay [2] is “no binding (tested: roughly 1 µg/ml)”.
